In US20030166192A1 (published 2003):

T1: c-CLAP (human, UniProt O95999 1-233, limits assumed)
T1 sequence (looked up): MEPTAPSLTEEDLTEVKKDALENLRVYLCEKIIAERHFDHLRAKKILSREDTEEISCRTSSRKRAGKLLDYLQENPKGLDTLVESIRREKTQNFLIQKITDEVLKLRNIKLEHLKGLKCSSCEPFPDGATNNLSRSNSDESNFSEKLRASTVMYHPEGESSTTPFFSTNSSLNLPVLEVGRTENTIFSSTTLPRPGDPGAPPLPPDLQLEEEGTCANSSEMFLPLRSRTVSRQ

T2: Apaf-1 (human, UniProt O14727 1-1248, limits assumed)
T2 sequence (looked up): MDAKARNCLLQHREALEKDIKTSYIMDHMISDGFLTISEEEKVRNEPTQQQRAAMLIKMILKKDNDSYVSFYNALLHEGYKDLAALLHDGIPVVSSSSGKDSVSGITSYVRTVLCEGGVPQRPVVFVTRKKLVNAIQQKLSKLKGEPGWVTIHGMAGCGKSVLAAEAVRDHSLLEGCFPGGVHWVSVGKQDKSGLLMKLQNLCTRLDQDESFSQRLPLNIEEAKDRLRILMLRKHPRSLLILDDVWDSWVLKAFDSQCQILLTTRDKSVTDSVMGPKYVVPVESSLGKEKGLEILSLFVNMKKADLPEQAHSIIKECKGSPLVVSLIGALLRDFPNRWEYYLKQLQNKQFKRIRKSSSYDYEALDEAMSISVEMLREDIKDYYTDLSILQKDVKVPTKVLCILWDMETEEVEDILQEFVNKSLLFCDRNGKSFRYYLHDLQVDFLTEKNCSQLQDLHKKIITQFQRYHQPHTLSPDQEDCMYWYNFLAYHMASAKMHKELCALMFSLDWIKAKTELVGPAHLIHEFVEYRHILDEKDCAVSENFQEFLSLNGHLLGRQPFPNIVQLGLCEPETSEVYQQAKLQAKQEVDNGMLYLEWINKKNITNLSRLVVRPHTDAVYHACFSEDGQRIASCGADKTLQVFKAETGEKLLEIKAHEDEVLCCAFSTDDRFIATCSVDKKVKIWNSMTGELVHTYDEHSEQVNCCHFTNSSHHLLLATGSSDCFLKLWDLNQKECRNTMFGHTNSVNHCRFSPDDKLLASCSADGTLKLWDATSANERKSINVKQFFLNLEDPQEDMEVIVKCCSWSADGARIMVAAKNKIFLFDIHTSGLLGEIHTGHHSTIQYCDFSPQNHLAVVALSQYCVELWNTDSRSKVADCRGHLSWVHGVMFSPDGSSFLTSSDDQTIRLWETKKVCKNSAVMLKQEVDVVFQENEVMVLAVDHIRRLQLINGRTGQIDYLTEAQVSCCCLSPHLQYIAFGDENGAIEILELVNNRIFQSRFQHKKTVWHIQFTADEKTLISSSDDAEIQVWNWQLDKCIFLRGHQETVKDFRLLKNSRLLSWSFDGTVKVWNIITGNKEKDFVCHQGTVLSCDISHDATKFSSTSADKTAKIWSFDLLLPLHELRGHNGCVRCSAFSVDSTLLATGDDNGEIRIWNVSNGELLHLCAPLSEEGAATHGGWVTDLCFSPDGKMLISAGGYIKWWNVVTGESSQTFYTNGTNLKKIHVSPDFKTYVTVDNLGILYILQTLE

T3: pro-caspase-4 (UniProt P49662 1-377, limits assumed)
T3 sequence (looked up): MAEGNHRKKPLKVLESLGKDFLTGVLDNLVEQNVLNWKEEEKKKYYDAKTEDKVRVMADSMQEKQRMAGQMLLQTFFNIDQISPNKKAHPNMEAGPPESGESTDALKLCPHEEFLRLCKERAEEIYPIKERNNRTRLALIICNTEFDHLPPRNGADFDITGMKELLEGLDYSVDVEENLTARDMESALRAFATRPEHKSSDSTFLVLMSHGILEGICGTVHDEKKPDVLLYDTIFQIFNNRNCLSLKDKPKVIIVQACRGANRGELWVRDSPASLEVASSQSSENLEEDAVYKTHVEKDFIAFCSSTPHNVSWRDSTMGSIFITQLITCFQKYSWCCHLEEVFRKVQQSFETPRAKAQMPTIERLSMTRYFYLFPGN

T4: pro-caspase-2 (UniProt P42575 1-452, limits assumed)
T4 sequence (looked up): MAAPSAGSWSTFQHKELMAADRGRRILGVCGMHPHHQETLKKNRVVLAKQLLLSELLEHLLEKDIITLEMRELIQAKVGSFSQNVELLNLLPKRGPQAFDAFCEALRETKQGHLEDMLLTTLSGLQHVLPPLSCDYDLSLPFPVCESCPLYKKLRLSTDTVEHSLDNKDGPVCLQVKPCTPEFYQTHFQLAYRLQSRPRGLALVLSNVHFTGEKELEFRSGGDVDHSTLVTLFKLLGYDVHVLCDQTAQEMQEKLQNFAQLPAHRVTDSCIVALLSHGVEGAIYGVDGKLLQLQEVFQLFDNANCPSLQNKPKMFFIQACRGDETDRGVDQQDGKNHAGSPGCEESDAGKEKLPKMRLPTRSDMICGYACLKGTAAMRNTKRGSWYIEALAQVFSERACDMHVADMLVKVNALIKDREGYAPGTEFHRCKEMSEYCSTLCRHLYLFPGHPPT

B1: Pseudo-ICE (other)
chain: MADKVLKEKRKLFIHSMGEGTINGLLDELLQTRVLNQEEMEKVKRENATVMDKTRALIDSVIPKGAQACQICITYICEEDSYLAETLGLSAGPIPGN
modifications: 35S-methionine label in the in vitro assay
notes: Used for the 35S-labelled in vitro translated product (made from a pcDNA3 construct); also called 35S-labeled Pseudo-ICE; in vitro translated Pseudo-ICE
B2: ICE-Like (other)
chain: MADQLLRKKRRIFIHSVGAGTINALLDCLLEDEVISQEDMNKVRDENDTVMDKARVLIDLVTGKGPKSCCKFIKHLCEEDPQLASKMGLH
modifications: 35S-methionine label in the in vitro assay
notes: Used for the 35S-labelled in vitro translated product (made from a pcDNA3 construct); also called 35S-labeled ICE-Like; in vitro translated ICE-Like
B3: T7-tagged ICE-Like (other, not shown: small tags and cut ends)
chain: B2 chain
notes: Expressed from pcDNA3 in 293 T cells, or from pMSCVneo retroviral vector in THP-1 cells; also called T7-ICE-Like
B4: GST-conjugated ICE-Like (other)
chain: B2 chain
notes: GST is put first by the usual make of pGEX vectors; also called ICE-Like-GST; GST-ICE-Like; not shown: glutathione-S-transferase (GST) from vector pGEX-5X 3

Assays:
RICK [1] = target: T5, RICK (UniProt O43353 1-540, limits assumed, 35S label in the in vitro assay); experiment: restated from Example 3; construct not named
T5 construct: also called 35S-labeled RICK; RIP2
T5 sequence (O43353 whole entry): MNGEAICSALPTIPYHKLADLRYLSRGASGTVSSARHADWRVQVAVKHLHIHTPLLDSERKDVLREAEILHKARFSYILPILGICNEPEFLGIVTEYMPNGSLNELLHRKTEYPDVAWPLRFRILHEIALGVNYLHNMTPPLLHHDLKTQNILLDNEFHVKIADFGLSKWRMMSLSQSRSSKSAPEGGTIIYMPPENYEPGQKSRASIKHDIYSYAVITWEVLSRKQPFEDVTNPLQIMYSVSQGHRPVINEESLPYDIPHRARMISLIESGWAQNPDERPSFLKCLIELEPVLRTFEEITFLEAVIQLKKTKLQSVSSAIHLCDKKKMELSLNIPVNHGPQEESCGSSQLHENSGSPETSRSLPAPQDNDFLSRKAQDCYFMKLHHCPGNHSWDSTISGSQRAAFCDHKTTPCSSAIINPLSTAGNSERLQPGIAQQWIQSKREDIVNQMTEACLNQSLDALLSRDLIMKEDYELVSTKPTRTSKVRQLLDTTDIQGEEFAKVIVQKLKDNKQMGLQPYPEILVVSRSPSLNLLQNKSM

CRADD [2] = target: T6, CRADD (human, UniProt P78560 1-199, limits assumed); experiment: GST pull-down in vitro or co-immunoprecipitation from 293 T cells (T7-CRADD with Flag-Pseudo-ICE, Panel C of FIG. 2)
T6 construct: also called T7-tagged CRADD
T6 sequence (P78560 whole entry): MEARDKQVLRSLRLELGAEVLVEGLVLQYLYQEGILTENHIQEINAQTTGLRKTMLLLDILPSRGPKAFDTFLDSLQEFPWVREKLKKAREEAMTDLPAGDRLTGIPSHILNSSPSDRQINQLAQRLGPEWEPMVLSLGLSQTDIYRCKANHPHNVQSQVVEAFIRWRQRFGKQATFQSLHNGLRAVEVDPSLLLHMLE
Experimental: (§1) Human embryonic kidney 293 T cells, were cultured in […] dishes in Dulbecco modified essential medium (DMEM) supplemented with 10% fetal bovine serum (FBS) and antibiotics (Life Technologies). Cells at 50% confluency, were transiently co-transfected with equal amounts of T7-pcDNA3 and Flag-pCMV2 constructs (total DNA of 10 μg/dish) in OptiMEM using the lipofectamine method according to the manufacturer's recommendations (Life Technologies). Twelve hours after transfection, OptiMEM was replaced with DMEM/10% FBS. Twenty four hours later, cells were lysed in 300 μl of a buffer containing 25 mM tris(hydroxymethylaminomethane), pH 7.6, 150 mM NaCl, 1% nonidet-P40, and PMSF. Samples were centrifuged. One third of the supernatant was put aside to verify by Western blot the expression of the proteins. The remaining 200 μl of supernatant were incubated for 2 h at 4° C. with anti-Flag M5 plus M2 monoclonal antibodies (Ab; Sigma). The immune complexes were precipitated overnight at 4° C. with protein-G Sepharose (Amersham-Pharmacia Biotech), washed extensively and then eluted by boiling in SDS-sample buffer.

GST = target: T7, GST (UniProt P08515 1-218 = GST); experiment: GST pull-down on glutathione resin of in vitro translated 35S-labeled protein, autoradiography [panel B]
T7 construct: also called gluthatione-S-transferase; GST alone
T7 sequence (P08515 whole entry): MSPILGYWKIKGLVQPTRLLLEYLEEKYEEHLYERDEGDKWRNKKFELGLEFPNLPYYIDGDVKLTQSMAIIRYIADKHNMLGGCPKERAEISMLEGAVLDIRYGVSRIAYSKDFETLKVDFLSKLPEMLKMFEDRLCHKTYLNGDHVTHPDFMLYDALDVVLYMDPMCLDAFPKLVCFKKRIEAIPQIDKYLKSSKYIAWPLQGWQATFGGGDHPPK
Experimental: (§2) Cells were then centrifuged at 10000 g for 15 min and supernatants were incubated for 2 h at 4° C. with gluthatione Sepharose 4B resin (Amersham Pharmacia Biotech). The protein-bound resin (30 μl) was washed with GST buffer and incubated overnight at 4° C. in the presence of 5 μl of ³⁵S-labeled in vitro-translated products. Labeled proteins were prepared from pcDNA3 constructs by in vitro transcription and translation in the presence of ³⁵S-methionine using T7-coupled transcription/translation TNT kit according to the manufacturer's instructions (Promega, Madison, Wis.). Samples of the protein-bound resins were washed three times in GST buffer, boiled in sodium dodecyl sulfate (SDS) Laemmli sample buffer and fractionated by electrophoresis on an SDS-polyacrylamide gel. Proteins were then visualized by autoradiography.

c-CLAP = target: T1, c-CLAP; experiment: GST pull-down in vitro or co-immunoprecipitation from 293 T cells (data not shown)
Experimental: as §2
as §1, with “buffer. The eluted proteins were resolved by SDS-PAGE and detected by Western blot analysis with horseradish peroxidase (HRP)-conjugated anti-T7 Ab (Novagen, Madison, Wis.). Bands were then detected using enhanced chemoluminescence kit (Amersham Pharmacia Biotech).” for “buffer.”

Apaf-1 = target: T2, Apaf-1; experiment: as above
Experimental: as §2
as §1, with “buffer. The eluted proteins were resolved by SDS-PAGE and detected by Western blot analysis with horseradish peroxidase (HRP)-conjugated anti-T7 Ab (Novagen, Madison, Wis.). Bands were then detected using enhanced chemoluminescence kit (Amersham Pharmacia Biotech).” for “buffer.”

c-IAP2 = c-IAP2 (UniProt Q13489 1-604, limits assumed); experiment: as above
c-IAP2, sequence (Q13489 whole entry): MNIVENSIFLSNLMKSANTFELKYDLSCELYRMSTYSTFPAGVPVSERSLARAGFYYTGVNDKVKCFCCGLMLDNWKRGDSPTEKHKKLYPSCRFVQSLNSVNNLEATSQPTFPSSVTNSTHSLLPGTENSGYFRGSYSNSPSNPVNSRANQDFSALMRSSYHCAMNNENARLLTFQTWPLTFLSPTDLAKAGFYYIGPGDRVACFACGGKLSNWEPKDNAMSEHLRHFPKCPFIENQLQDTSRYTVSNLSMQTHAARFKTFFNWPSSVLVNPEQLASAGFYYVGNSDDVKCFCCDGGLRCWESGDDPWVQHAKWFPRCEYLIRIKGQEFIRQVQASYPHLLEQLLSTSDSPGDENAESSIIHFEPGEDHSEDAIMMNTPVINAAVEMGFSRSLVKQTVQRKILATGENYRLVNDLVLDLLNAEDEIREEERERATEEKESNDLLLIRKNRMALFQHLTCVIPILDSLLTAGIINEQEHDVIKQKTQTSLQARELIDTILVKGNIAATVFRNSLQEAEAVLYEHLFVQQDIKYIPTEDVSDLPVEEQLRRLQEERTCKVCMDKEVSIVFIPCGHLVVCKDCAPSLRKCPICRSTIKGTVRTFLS
Experimental: as §2
as §1, with “buffer. The eluted proteins were resolved by SDS-PAGE and detected by Western blot analysis with horseradish peroxidase (HRP)-conjugated anti-T7 Ab (Novagen, Madison, Wis.). Bands were then detected using enhanced chemoluminescence kit (Amersham Pharmacia Biotech).” for “buffer.”

pro-caspase-4 = target: T3, pro-caspase-4; experiment: as above
Experimental: as §2
as §1, with “buffer. The eluted proteins were resolved by SDS-PAGE and detected by Western blot analysis with horseradish peroxidase (HRP)-conjugated anti-T7 Ab (Novagen, Madison, Wis.). Bands were then detected using enhanced chemoluminescence kit (Amersham Pharmacia Biotech).” for “buffer.”

pro-caspase-2 = target: T4, pro-caspase-2; experiment: as above
Experimental: as §2
as §1, with “buffer. The eluted proteins were resolved by SDS-PAGE and detected by Western blot analysis with horseradish peroxidase (HRP)-conjugated anti-T7 Ab (Novagen, Madison, Wis.). Bands were then detected using enhanced chemoluminescence kit (Amersham Pharmacia Biotech).” for “buffer.”

CRADD [3] = target: T6, CRADD; experiment: GST pull-down in vitro or co-immunoprecipitation from 293 T cells (T7-CRADD with Flag-ICE-Like, Panel C of FIG. 2)
Experimental: as §1

Flag-tagged RICK = target: T8, Flag-tagged RICK (UniProt O43353 1-540); experiment: co-immunoprecipitation from 293 T cells cotransfected with Flag-RICK, T7-Casp1C/A and rising amounts of T7-ICE-Like: IP anti-Flag, western blot anti-T7 [panel B]
T8 construct: Expressed in 293 T cells, precipitated with anti-Flag antibodies; also called Flag-RICK; RIP2; not shown: Flag tag
T8 sequence (O43353 whole entry): as the sequence (O43353 whole entry) above
Experimental: as §1, with “buffer. The eluted proteins were resolved by SDS-PAGE and detected by Western blot analysis with horseradish peroxidase (HRP)-conjugated anti-T7 Ab (Novagen, Madison, Wis.). Bands were then detected using enhanced chemoluminescence kit (Amersham Pharmacia Biotech).” for “buffer.”

RICK [4] = target: T5, RICK; experiment: GST pull-down of 35S-labelled RICK (data not shown)
Experimental: as §2

| Binder | binding result (RICK [1]) | binding result (CRADD [2]) | binding result (GST) | binding result (c-CLAP) | binding result (Apaf-1) | binding result (c-IAP2) | binding result (pro-caspase-4) | binding result (pro-caspase-2) | binding result (CRADD [3]) | binding result (Flag-tagged RICK) | binding result (RICK [4]) |
| --- | --- | --- | --- | --- | --- | --- | --- | --- | --- | --- | --- |
| B1 | binds | no binding | no binding | no binding | no binding | no binding | no binding | no binding | – | – | – |
| B2 | no binding | – | no binding | no binding | no binding | no binding | no binding | no binding | no binding | – | – |
| B3 | – | – | – | – | – | – | – | – | – | no binding | – |
| B4 | – | – | – | – | – | – | – | – | – | – | no binding |
